Laboratory results as given in patent publication US20260250338A1 (Molecular Partners, published 2026).

T1: CD32a expressed on Jurkat-NFAT-CD32a reporter cells (Invivogen jktl-nfat-cd32) (UniProt P12318 34-317, limits assumed)
T1 construct: whole, on cells; also called Jurkat-Lucia NFAT-CD32a Reporter cells; Fc receptor CD32a
T1 sequence (looked up): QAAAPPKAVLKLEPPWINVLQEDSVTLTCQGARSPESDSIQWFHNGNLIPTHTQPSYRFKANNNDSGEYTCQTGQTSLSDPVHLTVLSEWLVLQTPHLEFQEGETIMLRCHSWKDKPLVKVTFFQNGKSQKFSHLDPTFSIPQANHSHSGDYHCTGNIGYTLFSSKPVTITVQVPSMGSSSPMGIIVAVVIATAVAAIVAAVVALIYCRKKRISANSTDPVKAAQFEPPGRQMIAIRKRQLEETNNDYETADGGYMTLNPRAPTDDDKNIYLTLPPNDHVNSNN


Assays:
[1] = target: T1, CD32a expressed on Jurkat-NFAT-CD32a …; experiment: flow cytometry on Jurkat-NFAT-CD32a cells, 4-fold serial dilutions, detection with anti-DARPin 1.1.1 antibody
Procedure: Serial dilutions (4-fold) of the constructs were incubated 30 min at 4° C. with 50000 cells in a 96-well plate. Detection antibody (anti-DARPin 1.1.1 Alexa Fluor […]) was subsequently added to the wells (2 μg/ml diluted in FACS buffer) and incubated at 4° C. for 30 min. Cold buffer was added, then cells were spun down prior to supernatant removal. Cells were then fixed with Cell fix buffer (BD) and signal was measured by flow cytometry.

[2] = target: T2, CD16aV allotype of human CD16a expressed on Jurkat-Lucia-NFAT-CD16 Reporter cells (InvivoGen) (human, UniProt P08637 17-254); experiment: cell-based or functional assay
[3] = target: T3, full length human CD16b stably expressed on transduced WT Jurkat cells (human, UniProt O75015 17-200); experiment: flow cytometry on Jurkat-CD16b cells, serial dilutions, detection with Penta-His Alexa Fluor 647
T3 construct: whole, on cells; also called CD16b expressing cells; Jurkat CD16b

[4] = target: T3, full length human CD16b stably …; experiment: flow cytometry on Jurkat-CD16b cells, 5-fold serial dilutions, detection with Penta-His Alexa Fluor 488
Procedure: Serial dilutions (5-fold) of the constructs were incubated 30 min at 4° C. with 50000 cells in a 96-well plate. […] Cold buffer was added, then cells were spun down prior to supernatant removal. Cells were then fixed with Cell fix buffer (BD) and signal was measured by flow cytometry.

[5] = target: T2, CD16aV allotype of human CD16a …; experiment: cell-based or functional assay; remark: listed apart in the source

T3 sequence (O75015 17-200): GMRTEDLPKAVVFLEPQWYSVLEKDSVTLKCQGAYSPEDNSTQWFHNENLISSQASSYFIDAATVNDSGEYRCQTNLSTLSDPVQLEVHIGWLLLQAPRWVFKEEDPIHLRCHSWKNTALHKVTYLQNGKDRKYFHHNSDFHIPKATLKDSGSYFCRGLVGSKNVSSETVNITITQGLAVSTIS
T2 sequence (P08637 17-254 F176V): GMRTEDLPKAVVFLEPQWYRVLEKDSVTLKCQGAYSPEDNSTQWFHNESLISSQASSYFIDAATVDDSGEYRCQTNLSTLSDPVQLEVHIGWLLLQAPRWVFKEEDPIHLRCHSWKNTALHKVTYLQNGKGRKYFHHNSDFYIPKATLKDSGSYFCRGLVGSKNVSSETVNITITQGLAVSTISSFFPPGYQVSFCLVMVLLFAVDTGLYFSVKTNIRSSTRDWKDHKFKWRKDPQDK

Binder | EC50 (pM), ADCC reporter assay (luminescence), SKOV3 target cells, E:T 5:1, 5 h [2] [pM] | EC50 (pM), DDCC reporter assay (luminescence), Kasumi-1 target cells, E:T 1:1, 24 h [5] [pM] | Top (RLU), DDCC reporter assay (luminescence), Kasumi-1 target cells [5] [RLU] | further results
Construct No. 9 (SEQ ID NO: 14), 2D (HER2 × CD16a), DARPin #3 with N-terminal HER2 binder of SEQ ID NO: 8 (designed binder) MRGSHHHHHHGSDLGKKLLEAARAGQDDEVRELLKAGADVNAKDEYGLTPLYLATAHGHLEIVEVLLKAGADVNAVDAIGFTPLHLAAFIGHLEIAEVLLKAGADVNAQDKFGKTPADIAAGAGNEDIAEVLQKAAGSPTPTPTTPTPTPTTPTPTPTGSDLGKKLLQAARAGQLDEVRELLKAGADVNAKDEQGRTPLHIAAASGHLEIVEVLLKAGADVNAKDWFGITPLHIAAWWGHLEIVEVLLKAGADVNAKDQEGRTPLHIAAAIGHLEIVEVLLKAGADVNAQDKSGKTPADLAARAGHQDIAEVLQKAA | 1.6 | – | – | –
Construct No. 4 (SEQ ID NO: 15), 2D (HER2 × CD16a), DARPin #3 with N-terminal HER2 binder of SEQ ID NO: 9 (designed binder, Bispecific DARPin; also called Construct 4) MRGSHHHHHHGSDLGIKLLFAAAKGQDDEVRELLKAGADVNAKDFQGVTPLHIAAQSGHLEIVEVLLKAGADVNAKDVTGDTPLHLAAQHGHLEIVEVLLKAGADVNAQDERGWTPADLAADWGHEDIAEVLQKAAGSPTPTPTTPTPTPTTPTPTPTGSDLGKKLLQAARAGQLDEVRELLKAGADVNAKDEQGRTPLHIAAASGHLEIVEVLLKAGADVNAKDWFGITPLHIAAWWGHLEIVEVLLKAGADVNAKDQEGRTPLHIAAAIGHLEIVEVLLKAGADVNAQDKSGKTPADLAARAGHQDIAEVLQKAA | 0.7 | – | – | binding result [4]: no binding (tested: 1000 nM)
Construct No. 21 (SEQ ID NO: 90), CD117 × CD16a, CD117 binder SEQ ID NO: 85 and DARPin #2 (designed binder) MRGSHHHHHHGSDLGAKLLKAAQSGQDDEVRILLAAGADVNAKDKDGYTPLHLAAREGHLEIVEVLLKAGSDVNAKDYYGETPLHQAAEYGHLEIVEVLLKAGADVNAQDEWGATPADLAAQQGHEDIAEVLQKAAGSPTPTPTTPTPTPTTPTPTPTGSDLGQKLLRAAKKGQDDEVRELLKAGADVNAKDEQGWTPLHIAAWKGHLEIVEVLLKAGADVNAKDVFDWTPLHVAAHFGHLEIVEVLLKAGADVNAQDRAGETPADLAAQAGHEDIAEVLQKAA | – | 32.3 | 23200 | –
Construct No. 10 (SEQ ID NO: 16), 2D (CD16a × HER2), DARPin #3 with C-terminal HER2 binder of SEQ ID NO: 8 (designed binder) MRGSHHHHHHGSDLGKKLLQAARAGQLDEVRELLKAGADVNAKDEQGRTPLHIAAASGHLEIVEVLLKAGADVNAKDWFGITPLHIAAWWGHLEIVEVLLKAGADVNAKDQEGRTPLHIAAAIGHLEIVEVLLKAGADVNAQDKSGKTPADLAARAGHQDIAEVLQKAAGSPTPTPTTPTPTPTTPTPTPTGSDLGKKLLEAARAGQDDEVRELLKAGADVNAKDEYGLTPLYLATAHGHLEIVEVLLKAGADVNAVDAIGFTPLHLAAFIGHLEIAEVLLKAGADVNAQDKFGKTPADIAAGAGNEDIAEVLQKAA | 24 | – | – | –
Construct No. 11 (SEQ ID NO: 18), 2D (CD16a × HER2), DARPin #1 with C-terminal HER2 binder of SEQ ID NO: 9 (designed binder) MRGSHHHHHHGSDLGKKLLQAARAGQLDEVRELLKAGADVNAKDWSGFTPLHIAAVQGHLEIVEVLLKAGADVNAKDHSGWTPLHVAAFSGHLEIVEVLLKAGADVNAKDATGQTPLHLAARTGHLEIVEVLLKAGADVNAQDKSGKTPADLAARAGHQDIAEVLQKAAGSPTPTPTTPTPTPTTPTPTPTGSDLGIKLLFAAAKGQDDEVRELLKAGADVNAKDFQGVTPLHIAAQSGHLEIVEVLLKAGADVNAKDVTGDTPLHLAAQHGHLEIVEVLLKAGADVNAQDERGWTPADLAADWGHEDIAEVLQKAA | 4.1 | – | – | –
Construct No. 6 (SEQ ID NO: 17), 2D (CD16a × HER2), DARPin #3 with C-terminal HER2 binder of SEQ ID NO: 9 (designed binder, Bispecific DARPin; also called Construct 6) MRGSHHHHHHGSDLGKKLLQAARAGQLDEVRELLKAGADVNAKDEQGRTPLHIAAASGHLEIVEVLLKAGADVNAKDWFGITPLHIAAWWGHLEIVEVLLKAGADVNAKDQEGRTPLHIAAAIGHLEIVEVLLKAGADVNAQDKSGKTPADLAARAGHQDIAEVLQKAAGSPTPTPTTPTPTPTTPTPTPTGSDLGIKLLFAAAKGQDDEVRELLKAGADVNAKDFQGVTPLHIAAQSGHLEIVEVLLKAGADVNAKDVTGDTPLHLAAQHGHLEIVEVLLKAGADVNAQDERGWTPADLAADWGHEDIAEVLQKAA | 3.5 | – | – | binding result [3]: no binding (tested: 1000 nM)
Construct No. 22 (SEQ ID NO: 91), CD117 × CD16a, CD117 binder SEQ ID NO: 86 and DARPin #2 (designed binder) MRGSHHHHHHGSDLGKKLLQAARAGQLDEVRELLKAGADVNAKDVYGLTPLHLAAREGHLEIVEVLLKAGADVNAKDAYGETPLHLAAEAGHLEIVEVLLKAGADVNAKDEWGETPLNVAARAGHQDIAEVLQKAAGSPTPTPTTPTPTPTTPTPTPTGSDLGQKLLRAAKKGQDDEVRELLKAGADVNAKDEQGWTPLHIAAWKGHLEIVEVLLKAGADVNAKDVFDWTPLHVAAHFGHLEIVEVLLKAGADVNAQDRAGETPADLAAQAGHEDIAEVLQKAA | – | 25.2 | 22000 | –
Construct No. 20 (SEQ ID NO: 89), CD117 × CD16a, CD117 binder SEQ ID NO: 84 and DARPin #2 (designed binder) MRGSHHHHHHGSDLGQKLLKAAQYGQDDEVRILLAAGADVNAKDWAGKTPLHVAAEAGHLEIVEVLLKAGADVNAKDKAGETPLHLAAEQGHLEIVEVLLKAGADVNAQDEWGQTPADLAAYYGLEDIAEVLQKAAGSPTPTPTTPTPTPTTPTPTPTGSDLGQKLLRAAKKGQDDEVRELLKAGADVNAKDEQGWTPLHIAAWKGHLEIVEVLLKAGADVNAKDVFDWTPLHVAAHFGHLEIVEVLLKAGADVNAQDRAGETPADLAAQAGHEDIAEVLQKAA | – | 86.2 | 26500 | –

The next lines start with results.

EC50 (pM), ADCC reporter assay (luminescence), SKOV3 target cells, E:T 5:1, 5 h [2] [pM] | EC50 (pM), DDCC reporter assay (luminescence), Kasumi-1 target cells, E:T 1:1, 24 h [5] [pM] | Top (RLU), DDCC reporter assay (luminescence), Kasumi-1 target cells [5] [RLU] | Binder | further results
0.39 | – | – | Construct No. 5 (SEQ ID NO: 11), 2D (HER2 × CD16a), DARPin #2 with N-terminal HER2 binder of SEQ ID NO: 9 (designed binder, Bispecific DARPin; also called Construct 5) MRGSHHHHHHGSDLGIKLLFAAAKGQDDEVRELLKAGADVNAKDFQGVTPLHIAAQSGHLEIVEVLLKAGADVNAKDVTGDTPLHLAAQHGHLEIVEVLLKAGADVNAQDERGWTPADLAADWGHEDIAEVLQKAAGSPTPTPTTPTPTPTTPTPTPTGSDLGQKLLRAAKKGQDDEVRELLKAGADVNAKDEQGWTPLHIAAWKGHLEIVEVLLKAGADVNAKDVFDWTPLHVAAHFGHLEIVEVLLKAGADVNAQDRAGETPADLAAQAGHEDIAEVLQKAA | binding result [1]: no binding (tested: 400 nM); binding result [3]: no binding (tested: 1000 nM)
– | 96.1 | 8470 | Construct No. 24 (SEQ ID NO: 93), CD117 × CD16a, CD117 binder SEQ ID NO: 88 and DARPin #2 (designed binder) MRGSHHHHHHGSDLGHKLLHAAAWGQDDEVRILLAAGADVNAKDQSGWTPLHVAAWYGHLEIVEVLLKAGADVNAKDLKGETPLHLAALVGHLEIVEVLLKAGADVNAQDIAGDTPADLAAIAGHEDIAEVLQKAAGSPTPTPTTPTPTPTTPTPTPTGSDLGQKLLRAAKKGQDDEVRELLKAGADVNAKDEQGWTPLHIAAWKGHLEIVEVLLKAGADVNAKDVFDWTPLHVAAHFGHLEIVEVLLKAGADVNAQDRAGETPADLAAQAGHEDIAEVLQKAA | –
– | 120 | 7870 | Construct No. 23 (SEQ ID NO: 92), CD117 × CD16a, CD117 binder SEQ ID NO: 87 and DARPin #2 (designed binder) MRGSHHHHHHGSDLGKKLLKAASWGQDDEVRILLAAGADVNAKDNSGWTPLHAAAWYGHLEIVEVLLKAGADVNAKDKTGLTPLHKAAHVGHLEIVEVLLKAGADVNAQDEWGATPADLAASTGHEDIAEVLQKAAGSPTPTPTTPTPTPTTPTPTPTGSDLGQKLLRAAKKGQDDEVRELLKAGADVNAKDEQGWTPLHIAAWKGHLEIVEVLLKAGADVNAKDVFDWTPLHVAAHFGHLEIVEVLLKAGADVNAQDRAGETPADLAAQAGHEDIAEVLQKAA | –
0.19 | – | – | Construct No. 3 (SEQ ID NO: 13), 2D (CD16a × HER2), DARPin #2 with C-terminal HER2 binder of SEQ ID NO: 9 (designed binder, Bispecific DARPin; also called Construct 3) MRGSHHHHHHGSDLGQKLLRAAKKGQDDEVRELLKAGADVNAKDEQGWTPLHIAAWKGHLEIVEVLLKAGADVNAKDVFDWTPLHVAAHFGHLEIVEVLLKAGADVNAQDRAGETPADLAAQAGHEDIAEVLQKAAGSPTPTPTTPTPTPTTPTPTPTGSDLGIKLLFAAAKGQDDEVRELLKAGADVNAKDFQGVTPLHIAAQSGHLEIVEVLLKAGADVNAKDVTGDTPLHLAAQHGHLEIVEVLLKAGADVNAQDERGWTPADLAADWGHEDIAEVLQKAA | binding result [1]: no binding (tested: 400 nM); binding result [4]: no binding (tested: 1000 nM)
0.24 | – | – | Construct No. 8 (SEQ ID NO: 12), 2D (CD16a × HER2), DARPin #2 with C-terminal HER2 binder of SEQ ID NO: 8 (designed binder, Bispecific DARPin; also called Construct 8) MRGSHHHHHHGSDLGQKLLRAAKKGQDDEVRELLKAGADVNAKDEQGWTPLHIAAWKGHLEIVEVLLKAGADVNAKDVFDWTPLHVAAHFGHLEIVEVLLKAGADVNAQDRAGETPADLAAQAGHEDIAEVLQKAAGSPTPTPTTPTPTPTTPTPTPTGSDLGKKLLEAARAGQDDEVRELLKAGADVNAKDEYGLTPLYLATAHGHLEIVEVLLKAGADVNAVDAIGFTPLHLAAFIGHLEIAEVLLKAGADVNAQDKFGKTPADIAAGAGNEDIAEVLQKAA | binding result [1]: no binding (tested: 400 nM)
